# Assay results taken from patent US20250347705.
# Target: human chorionic gonadotropin (hCG), alpha/beta heterodimer (Homo sapiens) (UniProt P01215+P0DN86)
# Conditions: hCG magnetic beads with qPCR, artificial urine; round 6 pool 2.54%, round 7 20.88%, round 8 22.85%
# Chain of human chorionic gonadotropin (hCG), alpha/beta heterodimer (Homo sapiens) (P01215 25-116, chain 1 of 2, other chains not shown): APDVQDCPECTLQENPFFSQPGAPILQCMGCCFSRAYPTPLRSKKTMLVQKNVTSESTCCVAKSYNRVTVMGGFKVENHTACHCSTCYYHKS
sequence,measurement,value
TCGCACATTCCGCTTCTACCNNNNNNNNNNNNNNNNNNNNNNNNNNNNNNNNNNNNNNNNCGTAAGTCCGTGTGTGCGAA [SELEX round 9 pool],binding signal (% of input DNA bound),77.4
